Assay results: ChEMBL document CHEMBL3526061, “Glucuronidation of edaravone by human liver and kidney microsomes: biphasic kinetics and identification of UGT1A9 as the major UDP-glucuronosyltransferase isoform” (Drug Metab Dispos, 2012)

Legend:
[1] = substrate: CC1=NN(c2ccccc2)C(=O)C1; assay: Activity of human recombinant UGT1A6 expressed in insect cells assessed as enzyme mediated glucuronidation by LC-MS/MS method; type: ADME
[2] = substrate: CC1=NN(c2ccccc2)C(=O)C1; assay: Activity of human recombinant UGT1A1 expressed in insect cells assessed as enzyme mediated glucuronidation by LC-MS/MS method; type: ADME
[3] = substrate: CC1=NN(c2ccccc2)C(=O)C1; assay: Activity of human recombinant UGT1A7 expressed in insect cells assessed as enzyme mediated glucuronidation by LC-MS/MS method; type: ADME
not read = substrate: CC(C)c1cccc(C(C)C)c1O; assay: not read
[4] = substrate: COc1c(C)c2c(c(O)c1C/C=C(\C)CCC(=O)O)C(=O)OC2; assay: Activity of human recombinant UGT1A9 expressed in insect cells assessed as enzyme mediated glucuronidation by LC-MS/MS method; type: ADME
[5] = substrate: CC1=NN(c2ccccc2)C(=O)C1; assay: Activity of human recombinant UGT2B7 expressed in insect cells assessed as enzyme mediated glucuronidation by LC-MS/MS method; type: ADME
[6] = substrate: CC1=NN(c2ccccc2)C(=O)C1; assay: Activity of human recombinant UGT2B17 expressed in insect cells assessed as enzyme mediated glucuronidation by LC-MS/MS method; type: ADME

B1: UDP-glucuronosyltransferase 1A6 (Homo sapiens) (protein)
chain: MACLLRSFQRISAGVFFLALWGMVVGDKLLVVPQDGSHWLSMKDIVEVLSDRGHEIVVVVPEVNLLLKESKYYTRKIYPVPYDQEELKNRYQSFGNNHFAERSFLTAPQTEYRNNMIVIGLYFINCQSLLQDRDTLNFFKESKFDALFTDPALPCGVILAEYLGLPSVYLFRGFPCSLEHTFSRSPDPVSYIPRCYTKFSDHMTFSQRVANFLVNLLEPYLFYCLFSKYEELASAVLKRDVDIITLYQKVSVWLLRYDFVLEYPRPVMPNMVFIGGINCKKRKDLSQEFEAYINASGEHGIVVFSLGSMVSEIPEKKAMAIADALGKIPQTVLWRYTGTRPSNLANNTILVKWLPQNDLLGHPMTRAFITHAGSHGVYESICNGVPMVMMPLFGDQMDNAKRMETKGAGVTLNVLEMTSEDLENALKAVINDKSYKENIMRLSSLHKDRPVEPLDLAVFWVEFVMRHKGAPHLRPAAHDLTWYQYHSLDVIGFLLAVVLTVAFITFKCCAYGYRKCLGKKGRVKKAHKSKTH
In the case of B1, the Km [1] is reported as 778 µM and the Vmax [1] is reported as 1.24e-06 µmol/min/mg.

B2: UDP-glucuronosyltransferase 1A1 (Homo sapiens) (protein)
chain: MAVESQGGRPLVLGLLLCVLGPVVSHAGKILLIPVDGSHWLSMLGAIQQLQQRGHEIVVLAPDASLYIRDGAFYTLKTYPVPFQREDVKESFVSLGHNVFENDSFLQRVIKTYKKIKKDSAMLLSGCSHLLHNKELMASLAESSFDVMLTDPFLPCSPIVAQYLSLPTVFFLHALPCSLEFEATQCPNPFSYVPRPLSSHSDHMTFLQRVKNMLIAFSQNFLCDVVYSPYATLASEFLQREVTVQDLLSSASVWLFRSDFVKDYPRPIMPNMVFVGGINCLHQNPLSQEFEAYINASGEHGIVVFSLGSMVSEIPEKKAMAIADALGKIPQTVLWRYTGTRPSNLANNTILVKWLPQNDLLGHPMTRAFITHAGSHGVYESICNGVPMVMMPLFGDQMDNAKRMETKGAGVTLNVLEMTSEDLENALKAVINDKSYKENIMRLSSLHKDRPVEPLDLAVFWVEFVMRHKGAPHLRPAAHDLTWYQYHSLDVIGFLLAVVLTVAFITFKCCAYGYRKCLGKKGRVKKAHKSKTH
For B2, the Km [2] was 285 µM and the Vmax [2] was 4.52e-08 µmol/min/mg.

B3: UDP-glucuronosyltransferase 1A7 (Homo sapiens) (protein)
chain: MARAGWTGLLPLYVCLLLTCGFAKAGKLLVVPMDGSHWFTMQSVVEKLILRGHEVVVVMPEVSWQLGRSLNCTVKTYSTSYTLEDQDREFMVFADARWTAPLRSAFSLLTSSSNGIFDLFFSNCRSLFNDRKLVEYLKESCFDAVFLDPFDACGLIVAKYFSLPSVVFARGIFCHYLEEGAQCPAPLSYVPRLLLGFSDAMTFKERVWNHIMHLEEHLFCPYFFKNVLEIASEILQTPVTAYDLYSHTSIWLLRTDFVLEYPKPVMPNMIFIGGINCHQGKPVPMEFEAYINASGEHGIVVFSLGSMVSEIPEKKAMAIADALGKIPQTVLWRYTGTRPSNLANNTILVKWLPQNDLLGHPMTRAFITHAGSHGVYESICNGVPMVMMPLFGDQMDNAKRMETKGAGVTLNVLEMTSEDLENALKAVINDKSYKENIMRLSSLHKDRPVEPLDLAVFWVEFVMRHKGAPHLRPAAHDLTWYQYHSLDVIGFLLAVVLTVAFITFKCCAYGYRKCLGKKGRVKKAHKSKTH
B3 gave a Km [3] of 432 µM and a Vmax [3] of 7.4e-07 µmol/min/mg.

B4: UDP-glucuronosyltransferase 1A9 (Homo sapiens) (protein)
chain: MACTGWTSPLPLCVCLLLTCGFAEAGKLLVVPMDGSHWFTMRSVVEKLILRGHEVVVVMPEVSWQLGRSLNCTVKTYSTSYTLEDLDREFKAFAHAQWKAQVRSIYSLLMGSYNDIFDLFFSNCRSLFKDKKLVEYLKESSFDAVFLDPFDNCGLIVAKYFSLPSVVFARGILCHYLEEGAQCPAPLSYVPRILLGFSDAMTFKERVRNHIMHLEEHLLCHRFFKNALEIASEILQTPVTEYDLYSHTSIWLLRTDFVLDYPKPVMPNMIFIGGINCHQGKPLPMEFEAYINASGEHGIVVFSLGSMVSEIPEKKAMAIADALGKIPQTVLWRYTGTRPSNLANNTILVKWLPQNDLLGHPMTRAFITHAGSHGVYESICNGVPMVMMPLFGDQMDNAKRMETKGAGVTLNVLEMTSEDLENALKAVINDKSYKENIMRLSSLHKDRPVEPLDLAVFWVEFVMRHKGAPHLRPAAHDLTWYQYHSLDVIGFLLAVVLTVAFITFKCCAYGYRKCLGKKGRVKKAHKSKTH
In the case of B4, the Km (not read) is reported as 41 µM and the Km [4] is reported as 160 µM.

B5: UDP-glucuronosyltransferase 2B7 (Homo sapiens) (protein)
chain: MSVKWTSVILLIQLSFCFSSGNCGKVLVWAAEYSHWMNIKTILDELIQRGHEVTVLASSASILFDPNNSSALKIEIYPTSLTKTELENFIMQQIKRWSDLPKDTFWLYFSQVQEIMSIFGDITRKFCKDVVSNKKFMKKVQESRFDVIFADAIFPCSELLAELFNIPFVYSLSFSPGYTFEKHSGGFIFPPSYVPVVMSELTDQMTFMERVKNMIYVLYFDFWFEIFDMKKWDQFYSEVLGRPTTLSETMGKADVWLIRNSWNFQFPYPLLPNVDFVGGLHCKPAKPLPKEMEDFVQSSGENGVVVFSLGSMVSNMTEERANVIASALAQIPQKVLWRFDGNKPDTLGLNTRLYKWIPQNDLLGHPKTRAFITHGGANGIYEAIYHGIPMVGIPLFADQPDNIAHMKARGAAVRVDFNTMSSTDLLNALKRVINDPSYKENVMKLSRIQHDQPVKPLDRAVFWIEFVMRHKGAKHLRVAAHDLTWFQYHSLDVIGFLLVCVATVIFIVTKCCLFCFWKFARKAKKGKND
For B5, the Km [5] was 2380 µM and the Vmax [5] was 1.77e-06 µmol/min/mg.

B6: UDP-glucuronosyltransferase 2B17 (Homo sapiens) (protein)
chain: MSLKWMSVFLLMQLSCYFSSGSCGKVLVWPTEYSHWINMKTILEELVQRGHEVIVLTSSASILVNASKSSAIKLEVYPTSLTKNDLEDFFMKMFDRWTYSISKNTFWSYFSQLQELCWEYSDYNIKLCEDAVLNKKLMRKLQESKFDVLLADAVNPCGELLAELLNIPFLYSLRFSVGYTVEKNGGGFLFPPSYVPVVMSELSDQMIFMERIKNMIYMLYFDFWFQAYDLKKWDQFYSEVLGRPTTLFETMGKAEMWLIRTYWDFEFPRPFLPNVDFVGGLHCKPAKPLPKEMEEFVQSSGENGIVVFSLGSMISNMSEESANMIASALAQIPQKVLWRFDGKKPNTLGSNTRLYKWLPQNDLLGHPKTKAFITHGGTNGIYEAIYHGIPMVGIPLFADQHDNIAHMKAKGAALSVDIRTMSSRDLLNALKSVINDPIYKENIMKLSRIHHDQPVKPLDRAVFWIEFVMRHKGAKHLRVAAHNLTWIQYHSLDVIAFLLACVATMIFMITKCCLFCFRKLAKTGKKKKRD
B6 was tested, and the Km [6] was 129 µM and the Vmax [6] was 4.29e-07 µmol/min/mg.
